Consider 2 molecules from paper PMC12924673 (Science (New York, N.Y.), 2024).

The stoichiometry N is the number of molecules, sites or subunits per partner or assembly.

Data set [1] deals with recombinant ZnF0 of BCL11A. In words: dynamic light scattering.
For data set [2], the target named is recombinant ZnF0 of BCL11A. In words: crystal structure.
Data set [3] deals with recombinant ZnF0 of BCL11A. In words: AUC.
The target of data set [4] is recombinant ZnF0 of BCL11A. In words: native gel or EMSA.
The data set “native gel or EMSA” concerns the molecule itself. In words: native gel or EMSA. A general note: In EMSA bound probe runs differently from free probe, usually more slowly.

Turning to “recombinant ZnF0 of BCL11A (domain or fragment)”, the stoichiometry N in data set [1], in data set [2], in data set [3] and in data set [4] was 4 each time.

B1: full-length (FL) BCL11A, recombinant (natural protein, UniProt Q9H165-1 1-835, looked up)
chain: MSRRKQGKPQHLSKREFSPEPLEAILTDDEPDHGPLGAPEGDHDLLTCGQCQMNFPLGDILIFIEHKRKQCNGSLCLEKAVDKPPSPSPIEMKKASNPVEVGIQVTPEDDDCLSTSSRGICPKQEHIADKLLHWRGLSSPRSAHGALIPTPGMSAEYAPQGICKDEPSSYTCTTCKQPFTSAWFLLQHAQNTHGLRIYLESEHGSPLTPRVGIPSGLGAECPSQPPLHGIHIADNNPFNLLRIPGSVSREASGLAEGRFPPTPPLFSPPPRHHLDPHRIERLGAEEMALATHHPSAFDRVLRLNPMAMEPPAMDFSRRLRELAGNTSSPPLSPGRPSPMQRLLQPFQPGSKPPFLATPPLPPLQSAPPPSQPPVKSKSCEFCGKTFKFQSNLVVHRRSHTGEKPYKCNLCDHACTQASKLKRHMKTHMHKSSPMTVKSDDGLSTASSPEPGTSDLVGSASSALKSVVAKFKSENDPNLIPENGDEEEEEDDEEEEEEEEEEEEELTESERVDYGFGLSLEAARHHENSSRGAVVGVGDESRALPDVMQGMVLSSMQHFSEAFHQVLGEKHKRGHLAEAEGHRDTCDEDSVAGESDRIDDGTVNGRGCSPGESASGGLSKKLLLGSPSSLSPFSKRIKLEKEFDLPPAAMPNTENVYSQWLAGYAASRQLKDPFLSFGDSRQSPFASSSEHSSENGSLRFSTPPGELDGGISGRSGTGSGGSTPHISGPGPGRPSSKEGRRSDTCEYCGKVFKNCSNLTVHRRSHTGERPYKCELCNYACAQSSKLTRHMKTHGQVGKDVYKCEICKMPFSVYSTLEKHMKKWHSDRVLNNDIKTE
Regarding B1, the binding result in “native gel or EMSA” is on record as “binds”.
